Values of other authors as cited in PMC5193440.

Tested on: Cys
Conditions: not stated

Row | Substance | pKa
1 | DsbA1 (NmDsbA1) (Neisseria meningitidis) | 3.0
2 | DsbA1 (WpDsbA1, alpha-DsbA1), wild type (Wolbachia pipientis) | 4.7 ± 0.08
3 | DsbA (KpDsbA) (Klebsiella pneumoniae) | 3.2
4 | DsbA (MtbDsbA, Rv2969c) (Mycobacterium tuberculosis) | 4.2 ± 0.2
5 | DsbA (SaDsbA) (Staphylococcus aureus) | 3.4 ± 0.07
6 | DsbA (SeDsbA) (Salmonella enterica (inferred from the abbreviation; the article only calls it an enterobacterial DsbA)) | 3.3 ± 0.06
7 | DsbA (VcDsbA, TcpG) (Vibrio cholerae) | 5.1

Biological target: Cys30 (UniProt position 49, FFSFFCPHCYQ)
Conditions: reduced active site (dithiol form)

Row | Substance | pKa
8 | DsbA (thiol:disulfide interchange protein, EcDsbA) (Escherichia coli) | 3.3 ± 0.09
